Reference: PMC8916728 (2022)

B1: Fab 1-32 (Fab, V domains shown)
VH: QVKLVESGGGVVQPGRSLRLSCAGSGFAFDNYAMHWVRQAPGKGLEWVAVISLEGRNKYYAGPAKGRFSISRDNSRNTVHLQMNSLRPEDTAVYFCARDMRYYYDSNGHYRNRYGMDVWGQGTTVIVSS
VL: DIQMTQSPSSLSASVGDSVTITCQASQDINQFVSWYQQKPGKPPKLLIYDASNLESGVPSRFSGSGSGTHFTFTISSLQPDDIATYYCQQYENLFTFGPGTKVDIK
B2: Fab 1-103 (Fab, V domains shown)
VH: QLQLQESGPGLVKPSETLSLTCSVSGDAISGSNYYWGWIRQPPGKGLQWIGSIYHTGSTFYNPSFSSRVTLSVDTSKNQFSLKLISVNAADTAVYYCARRIRGYSGTYDWGQGTLVTVSS
VL: DIQLTQSPSFLSASVGDRVTITCRASQDISSYVAWYQQKPGNAPKLLISSASTLPSGVPSRFSGSRSGTDFTLTISSLQPEDFATYYCQQLNNFGPGTTVDIK
B3: untagged NRP2 (receptor)
chain: RGQPDPPCGGRLNSKDAGYITSPGYPQDYPSHQNCEWIVYAPEPNQKIVLNFNPHFEIEKHDCKYDFIEIRDGDSESADLLGKHCGNIAPPTIISSGSMLYIKFTSDYARQGAGFSLRYEIFKTGSEDCSKNFTSPNGTIESPGFPEKYPHNLDCTFTILAKPKMEIILQFLIFDLEHDPLQVGEGDCKYDWLDIWDGIPHVGPLIGKYCGTKTPSELRSSTGILSLTFHTDMAVAKDGFSARYYLVHQEPLENFQCNVPLGMESGRIANEQISASSTYSDGRWTPQQSRLHGDDNGWTPNLDSNKEYLQVDLRFLTMLTAIATQGAISRETQNGYYVKSYKLEVSTNGEDWMVYRHGKNHKVFQANNDATEVVLNKLHAPLLTRFVRIRPQTWHSGIALRLELFGCRVTDAPCSNMLGMLSGLIADSQISASSTQEYLWSPSAARLVSSRSGWFPRIPQAQPGEEWLQVDLGTPKTVKGVIIQGARGGDSITAVEARAFVRKFKVSYSLNGKDWEYIQDPRTQQPKLFEGNMHYDTPDIRRFDPIPAQYVRVYPERWSPAGIGMRLEVLGCDWTDSKPTVETLGPTVKSEETTTPYPTEEEATECGENCSFEDDKDLQLPSGFNCNFDFLEEPCGWMYDHAKWLRTTWASSSSPNDRTFPDDRNFLRLQSDSQREGQYARLISPPVHLPRSPVCMEFQYQATGGRGVALQVVREASQESKLLWVIREDQGGEWKHGRIILPSYDMEYQIVFEGVIGKGRSGEIAIDDIRISTDVPLENCMEPISAFAGENFKVDIPEIHEREGYEDEIDDEYEVDWSNSSSATSGSGAPSTDKEKSWLYTLDPILITIIAMSSLGVLLGATCAGLLLYCTCSYSGLSSRSCTTLENYNFELYDGLKHKVKMNHQKCCSEA
B4: Fab 2-25 (Fab, V domains shown)
VH: QVQLVESGAEVKKPGASVKVSCKASGYTFTNYAIHWVRQAPGQRLEWMGWINAGRGNTKYSQKFQGRVTITRDTSASTAYMELSSLRSEDAAVYFCARDESTGDYYYYMDVWGKGTTVTVSS
VL: SYELTQPPSVSVSPGQTASITCSGDRLDDKYASWYQQKAGQSPVLVIYQDNKRPSGIPERFSGSNSGNTATLTISGTQAMDEADYYCQAWDSDTYVFGTGTKVTVL
B5: Fab 2-18 (Fab, V domains shown)
VH: EVQLVQSGGGLVQPGGSLRVSCAASGFSFSDHDMDWVRQAPGKGFEWVGRSRNKDYSSTTEYAASVRGRFTISRHTSEDLLYLELNTVKTEDTAVYFCARGPHHSDRSGYYGGTFDIWGQGTMVTVSS
VL: DIQMTQSPSSVSASVGDRVIITCRASQGISSWLAWYQQKPGRAPRLLIYDASTLESGVPSRFSGRGSGTEFTLTINSLQPEDFATYYCQQGNMFPLTFGGGTKVEIK
B6: soluble ectodomain of the HCMV Pentamer (strain Towne) (complex)
chain 1: RYGAEAISEPLDKAFHLLLNTYGRPIRFLRENTTQCTYNSSLRNSTVVRENAISFNFFQSYNQYYVFHMPRCLFAGPLAEQFLNQVDLTETLERYQQRLNTYALVSKDLASYRSFSQQLKAQDSLGEQPTTVPPPIDLSIPHVWMPPQTTPHGWTESHTTSGLHRPHFNQTCILFDGHDLLFSTVTPCLHQGFYLIDELRYVKITLTEDFFVVTVSIDDDTPMLLIFGHLPRVLFKAPYQRDNFILRQTEKHELLVLVKKDQLNRHSYLKDPDFLDAALDFNYLDLSALLRNSFHRYAVDVLKSGRCQMLDRRTVEMAFAYALALFAAARQEEAGAQVSVPRALDRQAALLQIQEFMITCLSQTPPRTTLLLYPTAVDLAKRALWTPNQITDITSLVRLVYILSKQNQQHLIPQWALRQIADFALKLHKTHLASFLSAFARQELYLMGSLVHSMLVHTTERREIFIVETGLCSLAELSHFTQLLAHPHHEYLSDLYTPCSSSGRRDHSLERLTRLFPDATVPTTVPAALSILSTMQPSTLETFPDLFCLPLGESFSALTVSEHVSYVVTNQYLIKGISYPVSTTVVGQSLIITQTDSQTKCELTRNMHTTHSITAALNISLENCAFCQSALLEYDDTQGVINIMYMHDSDDVLFALDPYNEVVVSSPRTHYLMLLKNGTVLEVTDVVVDATDSRL
chain 2: VAVSVAPTAAEKVPAECPELTRRCLLGEVFQGDKYESWLRPLVNVTRRDGPLSQLIRYRPVTPEAANSVLLDDAFLDTLALLYNNPDQLRALLTLLSSDTAPRWMTVMRGYSECGDGSPAVYTCVDDLCRGYDLTRLSYGRSIFTEHVLGFELVPPSLFNVVVAIRNEATRTNRAVRLPVSTAAAPEGITLFYGLYNAVKEFCLRHQLDPPLLRHLDKYYAGLPPELKQTRVNLPAHSRYGPQAVDAR
chain 3: RVPRVRAEECCEFINVNHPPERCYDFKMCNRFTVALRCPDGEVCYSPEKTAEIRGIVTTMTHSLTRQVVHNKLTSCNYNPLYLEADGRIRCGKVNDKAQYLLGAAGSVPYRWINLEYDKITRIVGLDQYLESVKKHKRLDVCRAKMGYMLQ
chain 4: SPWSTLTANQNPSPPWSKLTYSKPHDAATFYCPFLYPSPPRSPLQFSGFQQVSTGPECRNETLYLLYNREGQTLVERSSTWVKKVIWYLSGRNQTILQRMPQTASKPSDGNVQISVEDAKIFGAHMVPKQTKLLRFVVNDGTRYQMCVMKLESWAHVFRDYSVSFQVRLTFTEANNQTYTFCTHPNLIV
chain 5: QCQRETAEKNDYYRVPHYWDACSRALPDQTRYKYVEQLVDLTLNYHYDASHGLDNFDVLKRINVTEVSLLISDFRRQNRRGGTNKRTTFNAAGSLAPHARSLEFSVRLFAN

Tests used:
[1] = biological target: B6; experiment: SPR
[2] = biological target: B6; experiment: SPR
[3] = biological target: 1-32–captured Pentamer (HCMV Pentamer bound by 1-32 IgG) (human cytomegalovirus (strain Towne) | …, UniProt P17176 24-718); experiment: BLI; Pentamer captured by 1-32 IgG
[4] = biological target: T1, NRP2 a2b1b2 (human neuropilin 2 residues 145 to 595, monomeric IgG1 Fc tag) (human, UniProt O60462 145-595); experiment: BLI; 2 mM Ca2+
T1 chain: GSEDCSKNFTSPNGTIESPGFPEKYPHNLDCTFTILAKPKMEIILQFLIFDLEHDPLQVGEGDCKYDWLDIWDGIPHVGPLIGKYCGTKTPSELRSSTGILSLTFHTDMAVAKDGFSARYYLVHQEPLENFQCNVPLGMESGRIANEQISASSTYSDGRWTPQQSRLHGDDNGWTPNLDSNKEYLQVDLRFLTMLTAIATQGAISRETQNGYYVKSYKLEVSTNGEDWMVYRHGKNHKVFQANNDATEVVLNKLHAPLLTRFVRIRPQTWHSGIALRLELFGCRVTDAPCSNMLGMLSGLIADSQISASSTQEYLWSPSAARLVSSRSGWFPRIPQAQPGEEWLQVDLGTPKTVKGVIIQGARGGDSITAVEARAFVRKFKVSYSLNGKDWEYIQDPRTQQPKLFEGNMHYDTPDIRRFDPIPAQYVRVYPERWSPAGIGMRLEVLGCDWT

[5] = biological target: T2, monoFc-tagged NRP2 (human neuropilin 2 a1a2b1b2, residues 23 to 595) (human, UniProt O60462 23-595); experiment: BLI; 2 mM Ca2+
T2 chain: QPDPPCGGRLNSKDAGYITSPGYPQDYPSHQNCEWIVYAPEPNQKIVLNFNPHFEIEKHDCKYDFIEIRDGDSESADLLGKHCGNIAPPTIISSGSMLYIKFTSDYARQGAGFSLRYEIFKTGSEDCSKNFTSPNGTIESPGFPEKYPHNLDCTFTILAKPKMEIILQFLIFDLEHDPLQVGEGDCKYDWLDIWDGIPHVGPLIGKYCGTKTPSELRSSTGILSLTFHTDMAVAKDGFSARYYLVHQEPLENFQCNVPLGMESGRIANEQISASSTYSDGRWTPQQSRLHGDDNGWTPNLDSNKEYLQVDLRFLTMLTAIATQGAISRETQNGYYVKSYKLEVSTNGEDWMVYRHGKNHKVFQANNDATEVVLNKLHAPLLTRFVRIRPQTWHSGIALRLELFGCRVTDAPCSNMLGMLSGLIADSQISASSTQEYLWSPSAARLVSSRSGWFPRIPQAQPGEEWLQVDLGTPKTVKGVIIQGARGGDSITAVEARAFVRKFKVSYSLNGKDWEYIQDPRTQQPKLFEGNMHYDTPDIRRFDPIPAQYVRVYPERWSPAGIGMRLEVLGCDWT

Binder: B1
- koff [1]: 0.000264 s⁻¹
- Kd [2]: 2.82 nM

Binder: B2
- Kd [2]: 3.11 nM

Binder: B3
- koff [3]: 0.00177 s⁻¹

Binder: B4
- Kd [2]: 1.08 nM

Binder: B5
- Kd [2]: 0.0493 nM

Binder: B6
- koff [4]: 0.00104 s⁻¹
- koff [5]: 0.000271 s⁻¹
